± gives the standard error. This sample holds only a part of the variants without activity.
B1: glmS ribozyme (parent)
chain: AUAAAAGCGCCAGAACUACAGAAAUGUAGUUGACGAGGAGGAGGUUUAUCGAAUUUUCGGCGGAUGCCUCCAAA

Tests used:
Settings in all cases: with glucosamine-6-phosphate
glucosamine-6-phosphate [1] = variants of: B1; experiment: self-cleavage kobs at 160 uM GlcN6P; higher = faster cleavage; RNA array
Summary of the method: (§1)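 Glucosamine-6-phosphate in HEPES/KCl/Mg(OAc)2 buffer, at 40 μM to 10 mM, was flowed over barcoded ribozyme variants transcribed in situ by E. coli RNA polymerase on sequenced MiSeq chips. Tracking was through a hybridised Cy3 probe at 37 °C. kobs, kcat and KM came from exponential decay fits and weighted Michaelis–Menten fits of normalised per-tile medians.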

glucosamine-6-phosphate [2] = variants of: B1; experiment: self-cleavage kobs at 640 uM GlcN6P; higher = faster cleavage; RNA array
Summary of the method: as §1

glucosamine-6-phosphate [3] = variants of: B1; experiment: self-cleavage kobs at 2500 uM GlcN6P; higher = faster cleavage; RNA array
Summary of the method: as §1

glucosamine-6-phosphate [4] = variants of: B1; experiment: self-cleavage kobs at 10000 uM GlcN6P; higher = faster cleavage; RNA array
Summary of the method: as §1

| Variant | self-cleavage kobs at 160 uM GlcN6P (glucosamine-6-phosphate [1]) | self-cleavage kobs at 640 uM GlcN6P (glucosamine-6-phosphate [2]) | self-cleavage kobs at 2500 uM GlcN6P (glucosamine-6-phosphate [3]) | self-cleavage kobs at 10000 uM GlcN6P (glucosamine-6-phosphate [4]) |
| --- | --- | --- | --- | --- |
| U30C G35C | < 1e-05 s⁻¹ | < 1e-05 s⁻¹ | < 1e-05 s⁻¹ | < 1e-05 s⁻¹ |
| G35U A64G | < 1e-05 s⁻¹ | < 1e-05 s⁻¹ | < 1e-05 s⁻¹ | – |
| A36C G38C G63A | < 1e-05 s⁻¹ | – | – | – |
| A33U G44C A52U | < 1e-05 s⁻¹ | – | < 1e-05 s⁻¹ | – |
| C34A U45A C70U | < 1e-05 s⁻¹ | < 1e-05 s⁻¹ | < 1e-05 s⁻¹ | – |
| U30G G43A U47G | < 1e-05 s⁻¹ | < 1e-05 s⁻¹ | < 1e-05 s⁻¹ | – |
| C16U G60C | < 1e-05 s⁻¹ | < 1e-05 s⁻¹ | < 1e-05 s⁻¹ | – |
| U30C C58U C67G C71A | 0.000188 ± 5.3e-05 s⁻¹ | 0.000584 ± 0.00013 s⁻¹ | 0.000197 ± 4.3e-05 s⁻¹ | – |
| A15G G51U G59A | < 1e-05 s⁻¹ | – | < 1e-05 s⁻¹ | < 1e-05 s⁻¹ |
| A33G G44U | < 1e-05 s⁻¹ | < 1e-05 s⁻¹ | – | < 1e-05 s⁻¹ |
| G35A G43A U47C U56C | < 1e-05 s⁻¹ | < 1e-05 s⁻¹ | – | – |
| C16U A36U U55C U56C C58G | < 1e-05 s⁻¹ | – | < 1e-05 s⁻¹ | – |
| C34G G40C A48G U49G C71U | < 1e-05 s⁻¹ | < 1e-05 s⁻¹ | < 1e-05 s⁻¹ | < 1e-05 s⁻¹ |
| U31C G62A | < 1e-05 s⁻¹ | < 1e-05 s⁻¹ | < 1e-05 s⁻¹ | < 1e-05 s⁻¹ |
| A33U G43C | < 1e-05 s⁻¹ | < 1e-05 s⁻¹ | < 1e-05 s⁻¹ | – |
| C34A G37A C58U | < 1e-05 s⁻¹ | – | – | – |
| G35U C58A C71G | < 1e-05 s⁻¹ | < 1e-05 s⁻¹ | – | – |
| U31C G35C G40C | < 1e-05 s⁻¹ | – | < 1e-05 s⁻¹ | < 1e-05 s⁻¹ |
| C34G A53U C68U | < 1e-05 s⁻¹ | – | < 1e-05 s⁻¹ | – |
| G32C G44C C58U G59A U65A C71U | < 1e-05 s⁻¹ | – | – | – |
| A36U C61U A64G | < 1e-05 s⁻¹ | < 1e-05 s⁻¹ | – | – |
| U30G G35C A36C A52U | < 1e-05 s⁻¹ | – | < 1e-05 s⁻¹ | – |
| G29A U65A C70U | 7.19e-05 ± 3e-05 s⁻¹ | 8.13e-05 ± 1.7e-05 s⁻¹ | 0.000148 ± 3.6e-05 s⁻¹ | – |
| G29U A42U A52U C67G | < 1e-05 s⁻¹ | < 1e-05 s⁻¹ | – | – |
| C34A U54A | < 1e-05 s⁻¹ | – | < 1e-05 s⁻¹ | – |

Source: the supplement of paper PMC7125110
